Columns and labels:
[1] = molecular target: Alexa647-labeled microtubules (porcine brain tubulin), antiparallel overlaps (porcine) (UniProt P02550)
[2] = molecular target: Alexa647-labeled microtubules (porcine brain tubulin), antiparallel overlaps (porcine) (UniProt P02550); remark: listed apart in the source

UniProt P02550, sequence (P02550 whole entry): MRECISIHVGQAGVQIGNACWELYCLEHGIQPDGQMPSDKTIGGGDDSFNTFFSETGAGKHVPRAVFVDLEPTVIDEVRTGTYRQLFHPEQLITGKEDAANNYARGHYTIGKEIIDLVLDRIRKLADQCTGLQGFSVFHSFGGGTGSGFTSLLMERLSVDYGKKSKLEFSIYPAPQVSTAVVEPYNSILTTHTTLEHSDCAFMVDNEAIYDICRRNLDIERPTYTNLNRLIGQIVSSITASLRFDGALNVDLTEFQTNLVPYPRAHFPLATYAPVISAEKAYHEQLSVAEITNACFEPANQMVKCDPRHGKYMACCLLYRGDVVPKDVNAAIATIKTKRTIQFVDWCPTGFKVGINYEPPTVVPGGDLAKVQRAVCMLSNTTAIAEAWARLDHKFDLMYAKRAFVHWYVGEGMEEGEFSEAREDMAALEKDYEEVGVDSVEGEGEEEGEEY

fold decrease of affinity against unphosphorylated PRC1 [1]	Kd [2]	Substance
> 10 fold	–	CDK1-phosphorylated PRC1-Alexa546 (human PRC1 isoform 2) (from UniProt O43663-2 1-576) (natural protein)
–	9.6 nM	PLK1-phosphorylated PRC1-Alexa546 (human PRC1 isoform 2) (from UniProt O43663-4 1-606) (natural protein)

— paper PMC11522559
